Experimental data taken from patent publication US20110123544A1 (published 2011).

T1: recombinant human IL-12 (rhIL-12) (human, UniProt P29459 23-219; P29460 23-328)
T1 chain 1: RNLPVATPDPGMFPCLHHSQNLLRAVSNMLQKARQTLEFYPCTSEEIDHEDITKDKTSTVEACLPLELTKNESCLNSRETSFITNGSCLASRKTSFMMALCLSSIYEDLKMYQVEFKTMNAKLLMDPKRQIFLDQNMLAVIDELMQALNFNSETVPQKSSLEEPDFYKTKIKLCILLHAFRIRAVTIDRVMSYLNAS
T1 chain 2: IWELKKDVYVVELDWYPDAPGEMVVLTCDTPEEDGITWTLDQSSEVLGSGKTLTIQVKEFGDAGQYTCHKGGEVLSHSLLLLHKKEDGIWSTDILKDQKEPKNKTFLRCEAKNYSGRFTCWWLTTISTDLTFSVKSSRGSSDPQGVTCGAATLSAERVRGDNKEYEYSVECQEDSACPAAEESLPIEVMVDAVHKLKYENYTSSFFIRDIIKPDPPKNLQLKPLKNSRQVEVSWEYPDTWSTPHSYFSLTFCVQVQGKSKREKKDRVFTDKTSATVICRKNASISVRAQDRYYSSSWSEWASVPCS


Target: T1, recombinant human IL-12 (rhIL-12)
Assay: BIAcore

Binder	koff
SGGRSNIGSNIVK [Y61 L32 I]	0.00154 s⁻¹
SGGRSNIGSMTVK [Y61 L31 M]	0.000174 s⁻¹
SGGRSNIGTNTVK [Y61 L30 T]	0.000226 s⁻¹
SGGRSNIGPNTVK [Y61 L30 P]	0.00025 s⁻¹
SGGRSNIGSNYVK [Y61 L32 Y]	0.000213 s⁻¹
SGGRSNIGSNNVK [Y61 L32 N]	0.00197 s⁻¹
SGGRSNIGSNQVK [Y61 L32 Q]	0.00247 s⁻¹
SGGRSNIGSNRVK [Y61 L32 R]	0.0069 s⁻¹
SGGRSNIGSNDVK [Y61 L32 D]	0.000252 s⁻¹
SGGRSNIGSNPVK [Y61 L32 P]	0.000424 s⁻¹
SGGRSNIGSGTVK [Y61 L31 G]	0.000366 s⁻¹
SGGRSNIGCNTVK [Y61 L30 C]	0.000186 s⁻¹
SGGRSNIGSNLVK [Y61 L32 L]	0.00215 s⁻¹
SGGRSNIGSNKVK [Y61 L32 K]	0.000318 s⁻¹
SGGRSNIGDNTVK [Y61 L30 D]	0.00022 s⁻¹
SGGRSNIGSYTVK [Y61 L31 Y]	0.000357 s⁻¹
SGGRSNIGSITVK [Y61 L31 I]	9.7e-05 s⁻¹
SGGRSNIGSNSVK [Y61 L32 S]	0.00191 s⁻¹
SGGRSNIGYNTVK [Y61 L30 Y]	0.000483 s⁻¹
SGGRSNIGSETVK [Y61 L31 E]	0.000384 s⁻¹
SGGRSNIGSNAVK [Y61 L32 A]	0.00191 s⁻¹
SGGRSNIGSNHVK [Y61 L32 H]	0.00026 s⁻¹
SGGRSNIGSNCVK [Y61 L32 C]	0.00381 s⁻¹
SGGRSNIGKNTVK [Y61 L30 K]	0.000346 s⁻¹
SGGRSNIGSNVVK [Y61 L32 V]	0.00164 s⁻¹
SGGRSNIGSDTVK [Y61 L31 D]	0.00058 s⁻¹
SGGRSNIGNNTVK [Y61 L30 N]	0.000166 s⁻¹
SGGRSNIGSHTVK [Y61 L31 H]	0.000315 s⁻¹
SGGRSNIGSTTVK [Y61 L31 T]	0.000309 s⁻¹
SGGRSNIGRNTVK [Y61 L30 R]	0.000182 s⁻¹
